Reference: the Immune Epitope Database (IEDB)
Values belong to the sequence of their own block, whether it stands above or below them.

How the values were obtained:
[1] = biological target: HLA-B*40:01; test: IEDB peptide-MHC binding, purified MHC/direct/fluorescence; filed as Kd, often an IC50 or EC50 that approximates it; ≥ and ≤ were set here for values at or beyond the usual limits of such assays
[2] = biological target: HLA-A*03:01; test: as above
[3] = biological target: HLA-B*58:01; test: as above
[4] = biological target: HLA-B*15:01; test: as above
[5] = biological target: HLA-A*31:01; test: as above
[6] = biological target: HLA-A*30:01; test: as above
[7] = biological target: HLA-B*08:01; test: as above
[8] = biological target: HLA-B*27:05; test: as above
[9] = biological target: HLA-A*11:01; test: as above
[10] = biological target: HLA-A*24:03; test: as above
[11] = biological target: HLA-A*02:01; test: as above
[12] = biological target: HLA-A*69:01; test: as above
[13] = biological target: HLA-A*26:01; test: as above
[14] = biological target: HLA-B*44:02; test: as above
[15] = biological target: HLA-B*07:02; test: as above
[16] = biological target: HLA-A*01:01; test: as above
[17] = biological target: HLA-B*45:06; test: IEDB peptide-MHC binding, purified MHC/competitive/fluorescence; filed as Kd, often an IC50 or EC50 that approximates it; ≥ and ≤ were set here for values at or beyond the usual limits of such assays; settings: source organism: Escherichia coli 536
[18] = biological target: HLA-B*08:01; test: as above; settings: source organism: Escherichia coli 536
[19] = biological target: HLA-B*35:01; test: as above
[20] = biological target: HLA-B*51:01; test: as above
[21] = biological target: HLA-B*15:42; test: as above; settings: source organism: Escherichia coli 536
[22] = biological target: HLA-B*83:01; test: as above; settings: source organism: Escherichia coli 536
[23] = biological target: HLA-A*02:01; test: IEDB peptide-MHC binding, purified MHC/competitive/radioactivity; ≥ and ≤ were set here for values at or beyond the usual limits of such assays
[24] = biological target: HLA-B*35:01; test: IEDB peptide-MHC binding, purified MHC/direct/fluorescence; filed as Kd, often an IC50 or EC50 that approximates it; ≥ and ≤ were set here for values at or beyond the usual limits of such assays
[25] = biological target: HLA-A*03:01; test: IEDB peptide-MHC binding, purified MHC/competitive/fluorescence; filed as Kd, often an IC50 or EC50 that approximates it; ≥ and ≤ were set here for values at or beyond the usual limits of such assays; settings: source organism: Vibrio antiquarius
[26] = biological target: HLA-B*46:01; test: as above; settings: source organism: Vibrio antiquarius
[27] = biological target: HLA-B*15:01; test: as above
[28] = biological target: HLA-B*39:01; test: as above; settings: source organism: Vibrio antiquarius
[29] = biological target: HLA-B*57:01; test: as above; settings: source organism: Vibrio antiquarius
[30] = biological target: HLA-B*18:01; test: as above; settings: source organism: Vibrio antiquarius
[31] = biological target: HLA-B*15:17; test: as above; settings: source organism: Vibrio antiquarius
[32] = biological target: HLA-B*27:03; test: as above; settings: source organism: Vibrio antiquarius
[33] = biological target: HLA-A*23:01; test: as above
[34] = biological target: HLA-A*29:02; test: as above; settings: source organism: Vibrio antiquarius
[35] = biological target: HLA-A*24:03; test: as above; settings: source organism: Vibrio antiquarius
[36] = biological target: HLA-A*02:01; test: as above; settings: source organism: Vibrio antiquarius
[37] = biological target: HLA-A*26:01; test: as above; settings: source organism: Vibrio antiquarius
[38] = biological target: HLA-A*02:12; test: as above; settings: source organism: Vibrio antiquarius
[39] = biological target: HLA-B*51:01; test: IEDB peptide-MHC binding, purified MHC/direct/fluorescence; filed as Kd, often an IC50 or EC50 that approximates it; ≥ and ≤ were set here for values at or beyond the usual limits of such assays; settings: source organism: West Nile virus
[40] = biological target: HLA-B*57:01; test: as above; settings: source organism: West Nile virus
[41] = source organism: Salmonella enterica
[42] = source organism: Escherichia coli
[43] = source organism: Escherichia coli 536
[44] = source organism: Yersinia pestis Nepal516
[45] = source organism: Yersinia pestis
[46] = source organism: Vibrio antiquarius
[47] = source organism: Mycobacterium tuberculosis variant bovis

Sequence: ALMRWRHPR
- Kd [1, 41]: ≥ 20 µM
- Kd [2, 42]: 0.0994 µM
- Kd [3, 41]: ≥ 20 µM
- Kd [4, 41]: ≥ 20 µM
- Kd [5, 42]: 0.00544 µM
- Kd [6, 42]: 0.00461 µM
- Kd [7, 41]: ≥ 20 µM
- Kd [8, 42]: 0.237 µM
- Kd [9, 42]: 0.00936 µM
- Kd [10, 41]: ≥ 20 µM
- Kd [11, 42]: 9.62 µM
- Kd [12, 41]: ≥ 20 µM
- Kd [13, 41]: ≥ 20 µM
- Kd [14, 41]: ≥ 20 µM
- Kd [15, 41]: ≥ 20 µM
- Kd [16, 41]: ≥ 20 µM

- Kd [17]: ≥ 5 µM
- Kd [18]: 0.0434 µM
- Kd [19, 43]: 0.0002 µM
- Kd [20, 43]: ≥ 20 µM
- Kd [21]: ≥ 5 µM
- Kd [22]: 0.0534 µM
Sequence: HPASRLFPF

- IC50 ([23]; source organism: Homo sapiens): 0.164 µM
Sequence: VILGVLLLI

- IC50 ([23]; source organism: Homo sapiens): 0.5 µM
Sequence: GLGQVPLIV

Sequence: YLHRDIFDI
- Kd [1, 44]: ≥ 20 µM
- Kd [2, 44]: ≥ 20 µM
- Kd [3, 44]: ≥ 20 µM
- Kd [4, 45]: 8.64 µM
- Kd [5, 44]: ≥ 20 µM
- Kd [7, 44]: ≥ 20 µM
- Kd [24, 45]: 0.113 µM
- Kd [8, 44]: ≥ 20 µM
- Kd [9, 44]: ≥ 20 µM
- Kd [10, 45]: ≥ 20 µM
- Kd [11, 45]: 0.0365 µM
- Kd [12, 44]: ≥ 20 µM
- Kd [13, 44]: ≥ 20 µM
- Kd [14, 44]: ≥ 20 µM
- Kd [15, 44]: ≥ 20 µM
- Kd [16, 44]: ≥ 20 µM

- IC50 ([23]; source organism: Homo sapiens): 2 µM
Sequence: PTLDKVLEV

Sequence: VTGCASLYV
- Kd [25]: ≥ 20 µM
- Kd [26]: ≥ 20 µM
- Kd [27, 46]: ≥ 20 µM
- Kd [28]: ≥ 20 µM
- Kd [29]: ≥ 20 µM
- Kd [30]: ≥ 20 µM
- Kd [31]: ≥ 20 µM
- Kd [32]: ≥ 20 µM
- Kd [33, 46]: ≥ 20 µM
- Kd [20, 46]: ≥ 20 µM
- Kd [34]: ≥ 20 µM
- Kd [35]: ≥ 20 µM
- Kd [36]: 0.0463 µM
- Kd [37]: ≥ 20 µM
- Kd [38]: 0.0368 µM

Sequence: QPAFMVASF
- Kd ([24]; source organism: West Nile virus): 0.007 µM
- Kd [39]: ≥ 20 µM

Sequence: RMYSPISIL
- IC50 ([23]; source organism: Human immunodeficiency virus 1): 0.056 µM

- Kd [27, 43]: 4.2 µM
- Kd [17]: ≥ 5 µM
- Kd [18]: ≥ 20 µM
- Kd [21]: ≥ 5 µM
- Kd [22]: ≥ 5 µM
Sequence: YSRMLYIEF

Sequence: GLSRYVARLS
- IC50 ([23]; source organism: Hepatitis B virus): 0.877 µM

Sequence: LAALGDTAW
- Kd [40]: 6.18 µM
- Kd ([19]; source organism: Japanese encephalitis virus): 0.0892 µM

Sequence: AFASLQDML
- Kd [1, 44]: ≥ 20 µM
- Kd [2, 45]: ≥ 20 µM
- Kd [3, 44]: ≥ 20 µM
- Kd [4, 44]: ≥ 20 µM
- Kd [6, 45]: ≥ 20 µM
- Kd [7, 44]: ≥ 20 µM
- Kd [8, 44]: ≥ 20 µM
- Kd [10, 45]: 1.28 µM
- Kd [11, 44]: ≥ 20 µM
- Kd [12, 44]: ≥ 20 µM
- Kd [13, 44]: ≥ 20 µM
- Kd [14, 44]: ≥ 20 µM
- Kd [15, 44]: ≥ 20 µM

- IC50 ([23]; source organism: Homo sapiens): 0.5 µM
Sequence: LLDGTATLRL

Sequence: MLAPSTLGY
- Kd [2, 47]: 0.0345 µM
- Kd [16, 47]: 0.052 µM
- Kd ([19]; source organism: Mycobacterium tuberculosis F11): ≤ 0.0001 µM

Sequence: LYQKNIEHF
- Kd ([33]; source organism: Vibrio vulnificus YJ016): ≤ 0.0001 µM

- Kd ([33]; source organism: Paramagnetospirillum magnetotacticum MS-1): 0.0017 µM
Sequence: FFIQTDAAI
